According to the supplement of paper PMC9112550, “Optimization of the antimicrobial peptide Bac7 by deep mutational scanning” (BMC Biology, 2022):

System: Escherichia coli TOP10
Assay: shrunken log2 fold change of peptide-encoding DNA abundance (4.5 h post-induction vs induction); higher = less antimicrobial activity (less host growth inhibition)
Details: time post-induction: 4.5 h; library: site-saturation at positions 5, 18, 19, 20
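Also: peptides expressed intracellularly from a pBAD plasmid library in pooled LB shake-flask culture, induced with 0.3% L-arabinose, DNA abundance read by NGS, three biological replicates, DESeq2 with apeglm shrinkage.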

Sequence	shrunken log2 fold change
RRIRLRPPRLPRPRPRPTGMPRP	0.056
RRIRFRPPRLPRPRPRPWGCPRP	-0.225
RRIRQRPPRLPRPRPRPHLAPRP	-0.0779
RRIRARPPRLPRPRPRPFMSPRP	-0.0065
RRIRDRPPRLPRPRPRPNDSPRP	-0.134
RRIRWRPPRLPRPRPRPVWDPRP	0.177
RRIRFRPPRLPRPRPRPLRYPRP	-0.192
RRIRFRPPRLPRPRPRPQMDPRP	0.0317
RRIRSRPPRLPRPRPRPSWHPRP	-0.206
RRIRFRPPRLPRPRPRPLNQPRP	-0.282
RRIRERPPRLPRPRPRPSKAPRP	-0.129
RRIRARPPRLPRPRPRPWSMPRP	-0.198
RRIRGRPPRLPRPRPRPCEAPRP	0.838
RRIRFRPPRLPRPRPRPIEYPRP	-0.00801
RRIRKRPPRLPRPRPRPCSTPRP	0.0274
RRIRHRPPRLPRPRPRPMWWPRP	0.177
RRIRDRPPRLPRPRPRPPDRPRP	0.468
RRIRQRPPRLPRPRPRPGVRPRP	-0.0485
RRIRLRPPRLPRPRPRPDECPRP	0.0277
RRIRPRPPRLPRPRPRPMWKPRP	-0.146
RRIRERPPRLPRPRPRPHCCPRP	-0.0271
RRIRIRPPRLPRPRPRPSCEPRP	-0.17
RRIRLRPPRLPRPRPRPCYEPRP	-0.284
RRIRGRPPRLPRPRPRPCQVPRP	0.224
RRIRNRPPRLPRPRPRPCHHPRP	-1.21

Sequence	shrunken log2 fold change
RRIRIRPPRLPRPRPRPSIHPRP	-1.28
RRIRERPPRLPRPRPRPSISPRP	0.0881
RRIRLRPPRLPRPRPRPKDGPRP	-0.0687
RRIRRRPPRLPRPRPRPKMVPRP	0.105
RRIRYRPPRLPRPRPRPKKDPRP	-0.719
RRIRKRPPRLPRPRPRPDQQPRP	0.0777
RRIRLRPPRLPRPRPRPELQPRP	0.328
RRIRNRPPRLPRPRPRPQAGPRP	-0.128
RRIRHRPPRLPRPRPRPPQQPRP	0.6
RRIRTRPPRLPRPRPRPKTYPRP	-0.566
RRIRNRPPRLPRPRPRPICMPRP	-0.195
RRIRNRPPRLPRPRPRPVCSPRP	-0.19
RRIRGRPPRLPRPRPRPQHSPRP	-0.0223
RRIRHRPPRLPRPRPRPQDKPRP	-0.355
RRIRKRPPRLPRPRPRPPINPRP	-0.0392
RRIRLRPPRLPRPRPRPDSPPRP	-0.119
RRIRVRPPRLPRPRPRPWLSPRP	-0.0434
RRIRGRPPRLPRPRPRPGAVPRP	0.961
RRIRIRPPRLPRPRPRPTHSPRP	-0.469
RRIRKRPPRLPRPRPRPTRKPRP	3.78
RRIRQRPPRLPRPRPRPFIQPRP	-0.321
RRIRIRPPRLPRPRPRPVPMPRP	-0.143
RRIRFRPPRLPRPRPRPYNWPRP	-0.0539
RRIRHRPPRLPRPRPRPRSIPRP	-0.374
RRIRQRPPRLPRPRPRPEEQPRP	0.39

Sequence	shrunken log2 fold change
RRIRWRPPRLPRPRPRPDSYPRP	0.00709
RRIRSRPPRLPRPRPRPSGMPRP	-0.311
RRIRERPPRLPRPRPRPRKHPRP	0.0582
RRIRNRPPRLPRPRPRPCQSPRP	-0.212
RRIRSRPPRLPRPRPRPEDDPRP	0.744
RRIRYRPPRLPRPRPRPWQDPRP	-0.122
RRIRYRPPRLPRPRPRPAYFPRP	-0.782
RRIRCRPPRLPRPRPRPEKVPRP	0.0187
RRIRERPPRLPRPRPRPHEMPRP	-0.039
RRIRSRPPRLPRPRPRPPFIPRP	-0.252
RRIRDRPPRLPRPRPRPFRDPRP	-0.00232
RRIRARPPRLPRPRPRPGKRPRP	0.374
RRIRFRPPRLPRPRPRPEIEPRP	0.0594
RRIRCRPPRLPRPRPRPNDPPRP	0.0328
RRIRRRPPRLPRPRPRPIENPRP	-0.0103
RRIRQRPPRLPRPRPRPTAHPRP	-0.0756
RRIRSRPPRLPRPRPRPSVMPRP	-0.391
RRIRERPPRLPRPRPRPAYCPRP	0.0672
RRIRRRPPRLPRPRPRPWKEPRP	-0.00773
RRIRLRPPRLPRPRPRPGCDPRP	0.261
RRIRTRPPRLPRPRPRPCCQPRP	0.0313
RRIRNRPPRLPRPRPRPGVEPRP	0.604
RRIRERPPRLPRPRPRPGKFPRP	-0.0178
RRIRARPPRLPRPRPRPHPYPRP	-0.484
RRIRHRPPRLPRPRPRPVLQPRP	-0.169

Sequence	shrunken log2 fold change
RRIRTRPPRLPRPRPRPVWDPRP	0.13
RRIRERPPRLPRPRPRPIYTPRP	0.036
RRIRSRPPRLPRPRPRPRMYPRP	-0.113
RRIRNRPPRLPRPRPRPFANPRP	-0.0288
RRIRARPPRLPRPRPRPVISPRP	0.0798
RRIRCRPPRLPRPRPRPEFRPRP	-0.0284
RRIRLRPPRLPRPRPRPVCRPRP	0.091
RRIRDRPPRLPRPRPRPRHSPRP	-0.043
RRIRGRPPRLPRPRPRPCRCPRP	0.107
RRIRDRPPRLPRPRPRPAHFPRP	0.358
RRIRERPPRLPRPRPRPLRIPRP	-0.277
RRIRDRPPRLPRPRPRPDAQPRP	1.21
RRIRIRPPRLPRPRPRPFEAPRP	-0.151
RRIRPRPPRLPRPRPRPDNFPRP	-1.15
RRIRMRPPRLPRPRPRPAGTPRP	0.627
RRIRMRPPRLPRPRPRPQDSPRP	0.051
RRIRIRPPRLPRPRPRPYPYPRP	0.0143
RRIRSRPPRLPRPRPRPVMYPRP	-0.0786
RRIRDRPPRLPRPRPRPSYRPRP	0.0164
RRIRPRPPRLPRPRPRPQRFPRP	0.0622
RRIRNRPPRLPRPRPRPMHKPRP	-0.131
RRIRVRPPRLPRPRPRPKHKPRP	-0.114
RRIRARPPRLPRPRPRPYLHPRP	-1.18
RRIRERPPRLPRPRPRPKIGPRP	-0.0947
RRIRLRPPRLPRPRPRPFERPRP	0.198

Sequence	shrunken log2 fold change
RRIRRRPPRLPRPRPRPCETPRP	0.0583
RRIRYRPPRLPRPRPRPLFYPRP	-0.335
RRIRLRPPRLPRPRPRPIDHPRP	-0.154
RRIRARPPRLPRPRPRPKYDPRP	-0.293
RRIRTRPPRLPRPRPRPVCWPRP	0.304
RRIRWRPPRLPRPRPRPEQFPRP	0.32
RRIRPRPPRLPRPRPRPKLVPRP	0.0371
RRIRERPPRLPRPRPRPDYYPRP	-0.603
RRIRVRPPRLPRPRPRPLYIPRP	-0.555
RRIRARPPRLPRPRPRPRKDPRP	0.173
RRIRFRPPRLPRPRPRPSWHPRP	-0.475
RRIRKRPPRLPRPRPRPYSKPRP	-0.608
RRIRVRPPRLPRPRPRPIDHPRP	-0.152
RRIRNRPPRLPRPRPRPCDQPRP	-0.0229
RRIRARPPRLPRPRPRPQVGPRP	0.391
RRIRPRPPRLPRPRPRPHQLPRP	0.0761
RRIRKRPPRLPRPRPRPAIDPRP	0.113
RRIRERPPRLPRPRPRPMPAPRP	-0.0153
RRIRTRPPRLPRPRPRPPVLPRP	0.0185
RRIRERPPRLPRPRPRPSQSPRP	-0.346
RRIRPRPPRLPRPRPRPSIQPRP	-0.696
RRIRCRPPRLPRPRPRPKMPPRP	0.0277
RRIRLRPPRLPRPRPRPIPSPRP	-0.177
RRIRARPPRLPRPRPRPITEPRP	-0.38
RRIRRRPPRLPRPRPRPYYNPRP	-0.807
